Experimental findings from patent US20200079855A1 (Pfizer, published 2020) are described below.

The target in test [1] is recombinant human αvβ8 integrin (human) (UniProt P06756). In words: ELISA (DELFIA counts) on human αvβ8, Fab titration. (An ELISA detects its analyte on a solid surface through an enzyme-linked reagent.)
The target of test [2] is T1, human αvβ8 integrin on U251 cells (human, UniProt P06756 31-1048). In words: flow cytometry, Fab binding to fixed U251 cells (ΔMFI, background subtracted); EC50 unit inferred, axis Log10 [Ab] (nM).
Test [3] concerns the target T1, human αvβ8 integrin on U251 cells. In words: flow cytometry, Fab binding to fixed U251 cells (MFI APC-A); EC50 unit inferred, axis Log10 [Ab] (nM). (Flow cytometry measures light scatter and fluorescence of single cells or particles in a stream.)
Test [4] shares this target. In words: cell-based or functional assay.
Test [5] has the same target. Put plainly: flow cytometry, Fab binding to fixed U251 cells (ΔMFI, background subtracted); EC50 unit inferred, axis Log10 [FAB] nM.
Test [6] has as its target recombinant human αvβ8 integrin (human) (UniProt P06756). Put plainly: SPR (Biacore), Fab affinity of Table 3. (In general: SPR reads the build-up and loss of mass on a sensor chip optically.)
In test [7] the target is T1, human αvβ8 integrin on U251 cells. In words: flow cytometry, IgG binding to U251 cells (MFI PE-A), left panel ADWA11_IgG_U251 cell binding; EC50 unit inferred, axis Log10 [mAb] nM.
In test [8] the target is T2, mouse αvβ8 integrin on C8-S cells (mouse, UniProt P43406 31-1044; Q0VBD0 22-767).
T2 construct: Endogenous αvβ8 of C8-S mouse astrocyte cells; also called C8-S (mouse astrocyte); C8-S (mouse avb8)
T2 sequence (P43406 31-1044 limits assumed, chain 1 of 2): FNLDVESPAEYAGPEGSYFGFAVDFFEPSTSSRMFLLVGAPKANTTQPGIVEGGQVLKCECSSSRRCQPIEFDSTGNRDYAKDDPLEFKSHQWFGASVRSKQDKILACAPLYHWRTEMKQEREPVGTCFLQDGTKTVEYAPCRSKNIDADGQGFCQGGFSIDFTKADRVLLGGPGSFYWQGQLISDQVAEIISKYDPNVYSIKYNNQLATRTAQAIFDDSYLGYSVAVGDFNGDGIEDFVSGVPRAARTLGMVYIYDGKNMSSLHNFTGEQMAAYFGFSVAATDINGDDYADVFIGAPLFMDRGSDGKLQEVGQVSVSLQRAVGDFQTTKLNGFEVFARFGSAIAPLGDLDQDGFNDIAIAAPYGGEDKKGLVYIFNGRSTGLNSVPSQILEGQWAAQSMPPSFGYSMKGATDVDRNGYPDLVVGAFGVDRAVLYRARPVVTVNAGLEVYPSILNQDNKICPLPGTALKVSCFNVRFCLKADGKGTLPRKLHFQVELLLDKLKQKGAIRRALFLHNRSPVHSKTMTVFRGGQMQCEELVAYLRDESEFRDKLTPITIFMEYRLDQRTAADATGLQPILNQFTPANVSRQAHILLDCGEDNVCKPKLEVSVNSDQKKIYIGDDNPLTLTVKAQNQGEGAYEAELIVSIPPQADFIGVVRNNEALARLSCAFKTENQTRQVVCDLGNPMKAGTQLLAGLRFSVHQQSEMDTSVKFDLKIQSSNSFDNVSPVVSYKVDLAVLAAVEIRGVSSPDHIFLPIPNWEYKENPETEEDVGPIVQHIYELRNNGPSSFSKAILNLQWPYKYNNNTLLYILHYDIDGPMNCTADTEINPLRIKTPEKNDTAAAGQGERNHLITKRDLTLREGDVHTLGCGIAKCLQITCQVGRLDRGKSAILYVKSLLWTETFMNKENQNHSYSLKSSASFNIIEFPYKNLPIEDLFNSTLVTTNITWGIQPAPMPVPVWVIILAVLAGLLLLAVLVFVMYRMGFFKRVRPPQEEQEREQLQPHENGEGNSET
T2 sequence (Q0VBD0 22-767 limits assumed, chain 2 of 2): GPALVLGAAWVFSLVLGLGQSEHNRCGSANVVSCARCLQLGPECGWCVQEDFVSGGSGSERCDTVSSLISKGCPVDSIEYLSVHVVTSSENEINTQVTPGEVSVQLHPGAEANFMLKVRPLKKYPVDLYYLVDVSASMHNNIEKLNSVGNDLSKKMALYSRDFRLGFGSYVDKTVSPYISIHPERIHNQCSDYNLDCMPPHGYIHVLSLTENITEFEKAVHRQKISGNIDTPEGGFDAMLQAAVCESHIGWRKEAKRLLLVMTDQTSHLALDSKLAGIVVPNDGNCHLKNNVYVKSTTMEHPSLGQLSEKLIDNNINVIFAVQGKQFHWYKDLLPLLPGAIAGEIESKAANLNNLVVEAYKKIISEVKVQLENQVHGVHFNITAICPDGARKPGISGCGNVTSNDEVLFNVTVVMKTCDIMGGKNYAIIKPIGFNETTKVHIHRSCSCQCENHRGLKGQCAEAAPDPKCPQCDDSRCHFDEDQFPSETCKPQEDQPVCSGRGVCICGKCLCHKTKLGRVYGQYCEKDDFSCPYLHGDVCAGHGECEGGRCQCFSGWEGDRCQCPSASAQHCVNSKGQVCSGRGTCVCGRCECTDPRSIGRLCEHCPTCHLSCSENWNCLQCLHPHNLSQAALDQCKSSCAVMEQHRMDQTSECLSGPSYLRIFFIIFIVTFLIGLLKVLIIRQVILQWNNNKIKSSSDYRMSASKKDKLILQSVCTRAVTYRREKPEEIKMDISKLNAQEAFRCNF
Put plainly: flow cytometry, IgG binding to C8-S cells (MFI PE-A), right panel ADWA11_IgG_C8-S cell binding; EC50 unit inferred, axis Log10 [mAb] nM. Here is the method: 100,000 cells were incubated with a dilution series of the anti-αvβ8 or human IgG1_3 mut Isotype antibody for three to four hours on ice. The cells were spun down for five minutes at 300 g force. The cells were then washed three times with wash buffer (PBS+0.2% BSA) to remove excess unbound antibodies. After thorough washing, cells were incubated with Fab′2 anti-human Fc-PE (Invitrogen) or goat Fab′2 anti-mouse-APC (Jackson Labs) at 1:1000 dilution along with LIVE/DEAD fixable cell stain (Invitrogen) at 1:2000 to distinguish live cells. The whole content was incubated for 30 minutes on ice. After washing, the stained cells were analyzed on BD biosciences Fortessa flow cytometer (gated for live cells) using FlowJo analysis software. The mean fluorescence intensities (MFI) at different antibody concentrations were plotted for various antibodies.
The apparent-affinity of ADWA11 2.4 for U251 (human glioblastoma) or C8-S (mouse astrocyte) cells was also evaluated in a cell-binding assay, according to the methods as generally described herein. Briefly, cells were incubated with a serial dilution of ADWA11 2.4 for 4 hours on ice, followed by detection on bound antibody with an anti-human-PE secondary antibody, and analyzed by flow cytometry.

Test [9] deals with T3, recombinant human αvβ6 integrin (human, UniProt P06756 31-992; P18564 22-707).
T3 construct: Used in ELISA and immobilised on the Biacore chip; construct not described; also called hαvβ6; AVB6
T3 sequence (P06756 31-992 limits assumed, chain 1 of 2): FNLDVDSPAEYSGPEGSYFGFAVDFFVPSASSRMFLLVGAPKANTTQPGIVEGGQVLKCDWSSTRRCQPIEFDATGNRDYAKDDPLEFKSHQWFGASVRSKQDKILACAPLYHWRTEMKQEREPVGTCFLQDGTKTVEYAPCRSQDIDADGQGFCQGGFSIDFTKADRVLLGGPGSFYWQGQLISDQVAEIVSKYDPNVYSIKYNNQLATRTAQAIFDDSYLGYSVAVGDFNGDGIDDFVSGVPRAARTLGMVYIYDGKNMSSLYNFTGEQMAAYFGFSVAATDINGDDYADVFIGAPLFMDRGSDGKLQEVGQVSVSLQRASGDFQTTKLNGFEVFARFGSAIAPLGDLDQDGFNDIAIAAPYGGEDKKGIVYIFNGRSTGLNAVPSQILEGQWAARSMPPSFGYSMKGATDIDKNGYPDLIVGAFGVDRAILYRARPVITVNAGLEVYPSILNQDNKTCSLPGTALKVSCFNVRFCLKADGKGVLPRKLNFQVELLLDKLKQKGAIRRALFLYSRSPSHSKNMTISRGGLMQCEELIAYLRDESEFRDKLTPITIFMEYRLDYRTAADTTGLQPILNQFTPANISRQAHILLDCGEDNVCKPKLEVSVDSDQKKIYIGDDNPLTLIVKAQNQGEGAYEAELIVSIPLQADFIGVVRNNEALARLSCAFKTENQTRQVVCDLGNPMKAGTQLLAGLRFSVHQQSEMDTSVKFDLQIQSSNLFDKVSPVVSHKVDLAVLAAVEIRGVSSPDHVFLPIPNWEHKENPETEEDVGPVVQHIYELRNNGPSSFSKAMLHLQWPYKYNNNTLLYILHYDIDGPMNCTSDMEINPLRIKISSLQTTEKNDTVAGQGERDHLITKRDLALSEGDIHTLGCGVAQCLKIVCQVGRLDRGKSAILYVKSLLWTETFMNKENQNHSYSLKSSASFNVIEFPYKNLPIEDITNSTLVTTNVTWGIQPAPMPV
T3 sequence (P18564 22-707 limits assumed, chain 2 of 2): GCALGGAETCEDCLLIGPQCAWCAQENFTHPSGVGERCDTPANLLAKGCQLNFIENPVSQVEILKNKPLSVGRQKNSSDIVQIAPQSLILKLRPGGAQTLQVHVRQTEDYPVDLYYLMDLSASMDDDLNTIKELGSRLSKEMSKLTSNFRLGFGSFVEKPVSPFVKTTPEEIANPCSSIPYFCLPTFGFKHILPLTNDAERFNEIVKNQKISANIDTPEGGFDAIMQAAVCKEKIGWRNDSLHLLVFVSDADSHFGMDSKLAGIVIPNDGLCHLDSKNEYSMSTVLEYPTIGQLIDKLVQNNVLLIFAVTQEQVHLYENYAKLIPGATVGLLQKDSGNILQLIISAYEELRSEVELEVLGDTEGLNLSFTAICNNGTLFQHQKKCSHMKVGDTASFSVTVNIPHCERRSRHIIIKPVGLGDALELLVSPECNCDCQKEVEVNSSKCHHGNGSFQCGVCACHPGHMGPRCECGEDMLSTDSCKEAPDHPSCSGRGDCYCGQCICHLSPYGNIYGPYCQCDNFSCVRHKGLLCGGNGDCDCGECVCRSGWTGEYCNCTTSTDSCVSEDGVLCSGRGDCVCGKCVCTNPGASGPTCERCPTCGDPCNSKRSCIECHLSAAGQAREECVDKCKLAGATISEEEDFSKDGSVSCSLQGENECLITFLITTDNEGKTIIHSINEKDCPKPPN
In words: Biacore, recombinant human αvβ6 immobilised on the chip; concentration not shown. The method, then:
(§1) To evaluate the specificity of ADWA11 2.4, recombinant human αvβ6 and αvβ3 were immobilized on a Biacore chip and binding of the parental murine and humanized mAb variant of ADWA11 2.4 was determined.

For test [10], the target named is T4, recombinant human αvβ3 integrin (human, UniProt P06756 31-992; P05106 27-718).
T4 construct: Used in ELISA and immobilised on the Biacore chip; construct not described; also called hαvβ3; AVB3
T4 sequence (P06756 31-992 limits assumed, chain 1 of 2): as the sequence (P06756 31-992 limits assumed, chain 1 of 2) above
T4 sequence (P05106 27-718 limits assumed, chain 2 of 2): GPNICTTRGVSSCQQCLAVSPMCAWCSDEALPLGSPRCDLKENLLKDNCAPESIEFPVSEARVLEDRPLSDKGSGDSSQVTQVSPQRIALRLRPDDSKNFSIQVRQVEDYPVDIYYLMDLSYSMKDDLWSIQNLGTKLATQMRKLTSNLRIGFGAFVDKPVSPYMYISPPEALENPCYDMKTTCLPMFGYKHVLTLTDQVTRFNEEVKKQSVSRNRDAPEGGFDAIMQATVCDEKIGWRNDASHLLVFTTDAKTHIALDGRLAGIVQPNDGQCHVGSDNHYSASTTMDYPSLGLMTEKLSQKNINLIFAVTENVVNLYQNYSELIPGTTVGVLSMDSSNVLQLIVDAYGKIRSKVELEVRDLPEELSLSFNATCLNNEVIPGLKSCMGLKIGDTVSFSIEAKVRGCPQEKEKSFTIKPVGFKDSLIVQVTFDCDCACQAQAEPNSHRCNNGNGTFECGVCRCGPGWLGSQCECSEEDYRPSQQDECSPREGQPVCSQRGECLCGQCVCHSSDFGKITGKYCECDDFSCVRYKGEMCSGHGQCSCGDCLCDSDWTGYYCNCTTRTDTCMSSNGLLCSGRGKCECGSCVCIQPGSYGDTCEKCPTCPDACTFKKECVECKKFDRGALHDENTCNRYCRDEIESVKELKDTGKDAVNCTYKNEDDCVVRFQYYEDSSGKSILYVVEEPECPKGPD
Put plainly: Biacore, recombinant human αvβ3 immobilised on the chip; concentration not shown. Here is the method:
as §1

Positions count from the first letter of the chain named. In names and notes the source's numbering stands. Several values for one entry are separate records, joined by “and”; a condition that tells them apart may be missing. Equal values may be shown once. A value given as a limit tells only on which side of the number the result lay.

Chain of recombinant human αvβ8 integrin (human) (P06756 31-992 limits assumed, form in doubt, chain 1 of 2): as the sequence (P06756 31-992 limits assumed, chain 1 of 2) above
Chain of recombinant human αvβ8 integrin (human) (chain, as listed by the source limits assumed, form in doubt, chain 2 of 2): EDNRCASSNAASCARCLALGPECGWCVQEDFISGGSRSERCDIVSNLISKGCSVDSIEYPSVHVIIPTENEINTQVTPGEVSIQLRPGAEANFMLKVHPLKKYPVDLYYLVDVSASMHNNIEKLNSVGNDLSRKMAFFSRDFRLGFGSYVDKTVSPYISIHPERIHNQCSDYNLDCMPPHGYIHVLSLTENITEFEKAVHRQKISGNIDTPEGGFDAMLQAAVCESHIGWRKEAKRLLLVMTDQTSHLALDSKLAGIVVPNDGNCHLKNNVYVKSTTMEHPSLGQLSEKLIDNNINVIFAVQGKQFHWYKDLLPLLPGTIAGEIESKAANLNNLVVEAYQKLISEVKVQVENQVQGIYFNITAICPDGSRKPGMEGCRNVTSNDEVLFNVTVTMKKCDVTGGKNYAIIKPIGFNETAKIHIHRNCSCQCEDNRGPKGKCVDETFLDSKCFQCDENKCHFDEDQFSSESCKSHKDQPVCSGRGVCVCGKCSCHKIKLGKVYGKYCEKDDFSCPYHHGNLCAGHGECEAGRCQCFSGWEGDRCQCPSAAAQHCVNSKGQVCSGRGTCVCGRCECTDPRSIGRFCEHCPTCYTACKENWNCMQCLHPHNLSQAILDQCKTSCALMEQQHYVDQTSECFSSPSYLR

B1: ADWA11 VH05/VK01 Fab with N57Q in VH (Fab, V domains shown)
VH: EVQLVESGGGLVQPGGSLRLSCAASGFNIKDYYMNWVRQAPGKGLEWVGWIDPDNGQTIYDPKFQGRFTISADTSKNSAYLQMNSLRAEDTAVYYCARRLLMDYWGQGTLVTVSS
VL: DIQMTQSPSSLSASVGDRVTITCRSTKSLLHFNGNTYLFWYQQKPGKAPKRLIYYMSNLASGVPSRFSGSGSGTDFTLTISSLQPEDFATYYCMQSLEYPFTFGQGTKVEIK
As to B1, the half-maximal effective concentration (EC50 (read off the curve)) (commonly the midpoint of the concentration-response curve) in test [1] was 1 nM.

B2: ADWA11 VH05-2/VK01 Fab with M56A in VL (Fab, V domains shown)
VH: B1 VH with N55Q, Q57N, D61E
VL: B1 VL with M56A
For the molecule B2, the concentration giving a half-maximal response (EC50) (in general, the concentration that produces a half-maximal response) in test [2] is 0.205 nM. This counts as sub-nanomolar.

B3: ADWA11 2.3 (F64V) Fab (Fab, V domains shown)
VH: B1 VH with N55Q, Q57N, D61E, F64V
VL: B1 VL with L30S, M56A, M94Q, Q105G
With B3, the EC50 in test [3] is 0.28 nM.

B4: ADWA11 VH05/VK01 Fab with K30A in VH (Fab, V domains shown)
VH: B1 VH with K30A, Q57N
VL: B1 VL
Take B4: the EC50 (read off the curve) in test [1] turned out to be 1 nM.

B5: ADWA11 VH03/VK02 IgG (antibody, V domains shown)
VH: B1 VH with Q57N, T74N, S75A
VL: B1 VL with Y41F
Take B5: the “IgG Potency TGFB Assay IC50 (pM)” value in test [4] turned out to be 223 pM.

B6: ADWA11 2.3 Fab (Fab, V domains shown)
VH: B1 VH with N55Q, Q57N, D61E
VL: B1 VL with L30S, M56A, M94Q, Q105G
The molecule B6 registered a 50% effective concentration (EC50) in test [3] of 0.452 nM. This lies in the sub-nanomolar range.

B7: ADWA11 VH05-2/VK01 Fab with N58S in VL (Fab, V domains shown)
VH: B1 VH with N55Q, Q57N, D61E
VL: B1 VL with N58S
B7 displayed an EC50 in test [2] of 0.229 nM.

B8: ADWA11 VH05-2/VK01 Fab with Q105G in VL (Fab, V domains shown)
VH: B1 VH with N55Q, Q57N, D61E
VL: B1 VL with Q105G
With B8, the EC50 in test [5] came to 0.486 nM.

B9: ADWA11 VH05-2/VK01 Fab (parental) (Fab, V domains shown)
VH: B1 VH with N55Q, Q57N, D61E
VL: B1 VL
With B9, the EC50 in [5] was 0.613 nM; in test [3], 0.198 nM; in test [2], 0.224 nM.

B10: ADWA11 VH05/VK01 Fab with D61E in VH (Fab, V domains shown)
VH: B1 VH with Q57N, D61E
VL: B1 VL
For B10, the EC50 (read off the curve) in test [1] was 1 nM.

B11: ADWA11 VH03/VK01 Fab (Fab, V domains shown)
VH: B1 VH with Q57N, T74N, S75A
VL: B1 VL
On to B11, for which, in test [6], the equilibrium dissociation constant (Kd) (as a rule, the equilibrium constant for the complex coming apart) was 0.0735 nM and < 0.1 nM; the fold lower KD than the mouse hybridoma antibody ADWA-11 was above 5 fold.

B12: ADWA11 VH05-2/VK01 Fab with L30S in VL (Fab, V domains shown)
VH: B1 VH with N55Q, Q57N, D61E
VL: B1 VL with L30S
B12 yielded an EC50 in test [5] of 0.544 nM.

B13: ADWA11 VH01/VK01 Fab (Fab, V domains shown)
VH: B1 VH with G49A, Q57N, A72R, T74N, S75A, A79L
VL: B1 VL
For the molecule B13, the Kd in test [6] was 6.86 nM.

B14: ADWA11 VH05-2/VK01 Fab with L97Y in VL (Fab, V domains shown)
VH: B1 VH with N55Q, Q57N, D61E
VL: B1 VL with L97Y
Take B14: the EC50 in [5] was 0.544 nM.

B15: ADWA11 2.1 (F64V) Fab (Fab, V domains shown)
VH: B1 VH with N55Q, Q57N, D61E, F64V
VL: B1 VL with L30S, M94Q, Q105G
In [3], B15 displayed an EC50 of 0.225 nM.

B16: ADWA11 VH05/VK01 Fab with P62A in VH (Fab, V domains shown)
VH: B1 VH with Q57N, P62A
VL: B1 VL
Turning to B16, the EC50 (read off the curve) in [1] was found to be 1 nM.

B17: ADWA11 2.4 (F64V) Fab (Fab, V domains shown)
VH: B1 VH with N55Q, Q57N, D61E, F64V
VL: B1 VL with L30S, N58S, M94Q, Q105G
For B17, in test [3], the EC50 came out at 0.211 nM.

B18: ADWA11 VH05/VK01 Fab with N55Q in VH (Fab, V domains shown)
VH: B1 VH with N55Q, Q57N
VL: B1 VL
Take B18: the EC50 (read off the curve) in test [1] was found to be 1 nM.

B19: ADWA11 VH03/VK01 IgG (antibody, V domains shown)
VH: B1 VH with Q57N, T74N, S75A
VL: B1 VL
As for B19, in [4], the “IgG Potency TGFB Assay IC50 (pM)” value stood at 138 pM.

B20: ADWA11 VH05-2/VK01 Fab with M94Q in VL (Fab, V domains shown)
VH: B1 VH with N55Q, Q57N, D61E
VL: B1 VL with M94Q
Take B20: the half-maximal effective concentration (EC50) in [5] came to 0.641 nM. That is a sub-nanomolar value.

B21: ADWA11 2.1 Fab (Fab, V domains shown)
VH: B1 VH with N55Q, Q57N, D61E
VL: B1 VL with L30S, M94Q, Q105G
Take B21: the half-maximal effective concentration (EC50) in test [3] was found to be 0.218 nM.

B22: ADWA11 VH03/VK02 Fab (Fab, V domains shown)
VH: B1 VH with Q57N, T74N, S75A
VL: B1 VL with Y41F
Turning to B22, the equilibrium dissociation constant (Kd) in test [6] is 0.373 nM and 0.37 nM.

B23: ADWA11 VH05-2/VK01 Fab with F101L in VL (Fab, V domains shown)
VH: B1 VH with N55Q, Q57N, D61E
VL: B1 VL with F101L
For B23, the EC50 in [5] was 1.56 nM.

B24: ADWA11 VH05-2/VK01(2.1) antibody (antibody, V domains shown)
VH: B1 VH with N55Q, Q57N, D61E
VL: B1 VL with L30S, M94Q, Q105G
notes: also called ADWA11 2.1
Consider B24, for which the 50% effective concentration (EC50) amounted to 0.1 nM in test [7] and 0.106 nM in [8].

B25: ADWA11 VH02/VK01 Fab (Fab, V domains shown)
VH: B1 VH with G49A, Q57N, T74N, S75A, A79L
VL: B1 VL
In the case of B25, in test [6], the Kd worked out at 1.89 nM.

B26: ADWA11 VH05-2/VK01 Fab with F64V in VH (Fab, V domains shown)
VH: B1 VH with N55Q, Q57N, D61E, F64V
VL: B1 VL
For the molecule B26, in test [5], the EC50 was determined as 0.588 nM.

B27: ADWA11 VH02/VK01 IgG (antibody, V domains shown)
VH: B1 VH with G49A, Q57N, T74N, S75A, A79L
VL: B1 VL
As to B27, in test [4], the “IgG Potency TGFB Assay IC50 (pM)” value was found to be 1760 pM.

B28: ADWA11 2.2 Fab (Fab, V domains shown)
VH: B1 VH with N55Q, Q57N, D61E
VL: B1 VL with L30S, L97Y, Q105G
B28 had an EC50 in [3] of 0.225 nM.

B29: ADWA11 VH05/VK01 Fab with K63A in VH (Fab, V domains shown)
VH: B1 VH with Q57N, K63A
VL: B1 VL
Consider B29, for which, in [1], the half-maximal effective concentration (EC50 (read off the curve)) stood at 1 nM.

B30: ADWA11 VH01/VK01 IgG (antibody, V domains shown)
VH: B1 VH with G49A, Q57N, A72R, T74N, S75A, A79L
VL: B1 VL
In the case of B30, in test [4], the “IgG Potency TGFB Assay IC50 (pM)” value is 8470 pM.

B31: ADWA11 VH05-1/VK01 IgG (antibody, V domains shown)
VH: B1 VH with Q57N, D61E
VL: B1 VL
notes: VH05 with D61E; also called ADWA11 5-1_1; VH05/VK01-D61E
Regarding B31, the binding result in test [9] and in [10] was “no binding” throughout.
